Patent US20210246166A1 (Bayer, published 2021)
Bridge positions count the residues as written; N and C are the ends. Square brackets hold non-standard residues; d marks the D form. Ends that are not written are not given here. Oic = O=C(O)[C@@H]1C[C@@H]2CCCC[C@@H]2N1; tBuAla = CC(C)(C)C[C@H](N)C(=O)O; 2Pal = N[C@@H](Cc1ccccn1)C(=O)O; Pen = CC(C)(S)[C@H](N)C(=O)O; NMeC = CN[C@@H](CS)C(=O)O; NMeA = CN[C@@H](C)C(=O)O; Orn = NCCC[C@H](N)C(=O)O; Sar = CNCC(=O)O

Legend:
[1] = target: T1, Recombinant human MASP1 enzyme (fragment corresponding to amino acids 297-699, C-terminal His Tag) (human, UniProt P48740 297-699); experiment: cell-based or functional assay
T1 sequence: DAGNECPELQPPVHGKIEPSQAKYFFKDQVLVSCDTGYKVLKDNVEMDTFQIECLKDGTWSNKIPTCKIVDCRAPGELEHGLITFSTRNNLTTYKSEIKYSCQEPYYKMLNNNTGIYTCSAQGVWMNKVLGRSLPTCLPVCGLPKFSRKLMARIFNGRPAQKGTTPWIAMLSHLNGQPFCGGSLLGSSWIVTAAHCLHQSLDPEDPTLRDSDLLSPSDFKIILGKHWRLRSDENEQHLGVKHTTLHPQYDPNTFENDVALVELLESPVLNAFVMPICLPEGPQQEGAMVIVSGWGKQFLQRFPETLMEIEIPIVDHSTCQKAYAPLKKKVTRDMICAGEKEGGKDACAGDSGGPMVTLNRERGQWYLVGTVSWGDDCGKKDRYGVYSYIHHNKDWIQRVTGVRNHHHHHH

[2] = target: Recombinant human MASP2 enzyme (fragment corresponding to amino acids 297-686, C-terminal His Tag) (human, UniProt O00187 297-686); experiment: cell-based or functional assay
Chain of Recombinant human MASP2 enzyme (fragment corresponding to amino acids 297-686, C-terminal His Tag) (O00187 other isoform, or with tags, fused parts or gaps limits assumed): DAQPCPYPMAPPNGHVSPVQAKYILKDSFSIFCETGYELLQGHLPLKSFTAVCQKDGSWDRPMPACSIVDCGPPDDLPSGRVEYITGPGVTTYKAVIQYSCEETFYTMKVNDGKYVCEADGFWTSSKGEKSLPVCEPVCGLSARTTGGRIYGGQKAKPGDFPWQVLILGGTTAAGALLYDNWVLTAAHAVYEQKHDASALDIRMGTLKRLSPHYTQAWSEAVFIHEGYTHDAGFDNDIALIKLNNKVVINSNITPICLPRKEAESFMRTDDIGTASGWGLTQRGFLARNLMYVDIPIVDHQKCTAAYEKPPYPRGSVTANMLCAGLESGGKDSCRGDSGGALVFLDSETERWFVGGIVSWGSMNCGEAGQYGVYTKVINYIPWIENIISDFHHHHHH

Binder | human MASP1 IC50 [1] [nM] | human MASP2 IC50 [2] [nM]
AICSRS[tBuAla]P[Oic]I[NMeC]I-OH (disulfide 3-11; N-terminus assumed; SMILES CC[C@H](C)[C@H](NC(=O)[C@@H]1CSSC[C@H](NC(=O)[C@@H](NC(=O)[C@H](C)N)[C@@H](C)CC)C(=O)N[C@@H](CO)C(=O)N[C@@H](CCCNC(=N)N)C(=O)N[C@@H](CO)C(=O)N[C@@H](CC(C)(C)C)C(=O)N2CCC[C@H]2C(=O)N2[C@@H](C[C@@H]3CCCC[C@@H]32)C(=O)N[C@@H]([C@@H](C)CC)C(=O)N1C)C(=O)O) [AIC+SRS-((tBu)A)-P-(Oic)-I-((N-Me)C)+I-OH] | 4.4 | 850
[Sar]ICSRSLP[Oic]I[Pen]I[5‑Azaspiro(2.4)heptane‑1‑carboxylic acid]-OH (disulfide 3-11) [((N-Me)G)-IC+SRSLP-(Oic)-I-(Pen)+I-((5-Azaspiro[2.4]heptane-1-carboxylic acid)-OH] | 5.1 | 100
[dA]ICSRSLP[Oic]I[Pen]IPE-NH2 (disulfide 3-11; N-terminus assumed; SMILES CC[C@H](C)[C@H](NC(=O)[C@@H](C)N)C(=O)N[C@H]1CSSC(C)(C)[C@@H](C(=O)N[C@H](C(=O)N2CCC[C@H]2C(=O)N[C@@H](CCC(=O)O)C(N)=O)[C@@H](C)CC)NC(=O)[C@H]([C@@H](C)CC)NC(=O)[C@@H]2C[C@@H]3CCCC[C@@H]3N2C(=O)[C@@H]2CCCN2C(=O)[C@H](CC(C)C)NC(=O)[C@H](CO)NC(=O)[C@H](CCCNC(=N)N)NC(=O)[C@H](CO)NC1=O) [aIC+SRSLP-(Oic)-I-(Pen)+IPE-NH2] | 5 | 150
AICSRS[tBuAla]P[(2S,3aS,6aS)‑Octahydrocyclopenta(b)pyrrole‑2‑carboxylic acid]I[NMeC]IPD-NH2 (disulfide 3-11) | 4.4 | 240
YICSRS[tBuAla]PPI[NMeC]I-NH2 (disulfide 3-11; N-terminus assumed; SMILES CC[C@H](C)[C@H](NC(=O)[C@@H]1CSSC[C@H](NC(=O)[C@@H](NC(=O)[C@@H](N)Cc2ccc(O)cc2)[C@@H](C)CC)C(=O)N[C@@H](CO)C(=O)N[C@@H](CCCNC(=N)N)C(=O)N[C@@H](CO)C(=O)N[C@@H](CC(C)(C)C)C(=O)N2CCC[C@H]2C(=O)N2CCC[C@H]2C(=O)N[C@@H]([C@@H](C)CC)C(=O)N1C)C(N)=O) [YIC+SRS-((tBu)A)-PPI-((N-Me)C)+I-NH2] | 4.5 | 68
[Sar]ICSRSLP[Oic]I[Pen]I-OH (disulfide 3-11; N-terminus assumed; SMILES CC[C@H](C)[C@H](NC(=O)[C@H]1NC(=O)[C@H]([C@@H](C)CC)NC(=O)[C@@H]2C[C@@H]3CCCC[C@@H]3N2C(=O)[C@@H]2CCCN2C(=O)[C@H](CC(C)C)NC(=O)[C@H](CO)NC(=O)[C@H](CCCNC(=N)N)NC(=O)[C@H](CO)NC(=O)[C@@H](NC(=O)[C@@H](NC(=O)CNC)[C@@H](C)CC)CSSC1(C)C)C(=O)O) [((N-Me)G)-IC+SRSLP-(Oic)-I-(Pen)+I-OH] | 4.9 | 550
[Orn]ICSRS[tBuAla]PPICI-NH2 (disulfide 3-11; N-terminus assumed; SMILES CC[C@H](C)[C@H](NC(=O)[C@@H]1CSSC[C@H](NC(=O)[C@@H](NC(=O)[C@@H](N)CCCN)[C@@H](C)CC)C(=O)N[C@@H](CO)C(=O)N[C@@H](CCCNC(=N)N)C(=O)N[C@@H](CO)C(=O)N[C@@H](CC(C)(C)C)C(=O)N2CCC[C@H]2C(=O)N2CCC[C@H]2C(=O)N[C@@H]([C@@H](C)CC)C(=O)N1)C(N)=O) [(Orn)-IC+SRS-((tBu)A)-PPIC+I-NH2] | 4.8 | 170
[dA]ICSRSLP[Oic]I[Pen]IP-OH (disulfide 3-11; N-terminus assumed; SMILES CC[C@H](C)[C@H](NC(=O)[C@@H](C)N)C(=O)N[C@H]1CSSC(C)(C)[C@@H](C(=O)N[C@H](C(=O)N2CCC[C@H]2C(=O)O)[C@@H](C)CC)NC(=O)[C@H]([C@@H](C)CC)NC(=O)[C@@H]2C[C@@H]3CCCC[C@@H]3N2C(=O)[C@@H]2CCCN2C(=O)[C@H](CC(C)C)NC(=O)[C@H](CO)NC(=O)[C@H](CCCNC(=N)N)NC(=O)[C@H](CO)NC1=O) [aIC+SRSLP-(Oic)-I-(Pen)+IP-OH] | 4.9 | 200
[NMeA]ICSRSLP[Oic]I[Pen]IPQ-OH (disulfide 3-11; N-terminus assumed; SMILES CC[C@H](C)[C@H](NC(=O)[C@H](C)NC)C(=O)N[C@H]1CSSC(C)(C)[C@@H](C(=O)N[C@H](C(=O)N2CCC[C@H]2C(=O)N[C@@H](CCC(N)=O)C(=O)O)[C@@H](C)CC)NC(=O)[C@H]([C@@H](C)CC)NC(=O)[C@@H]2C[C@@H]3CCCC[C@@H]3N2C(=O)[C@@H]2CCCN2C(=O)[C@H](CC(C)C)NC(=O)[C@H](CO)NC(=O)[C@H](CCCNC(=N)N)NC(=O)[C@H](CO)NC1=O) [((N-Me)A)-IC+SRSLP-(Oic)-I-(Pen)+IPQ-OH] | 4.4 | 170
[dA]ICSRSLP[Oic]I[Pen]IPQ-OH (disulfide 3-11; N-terminus assumed; SMILES CC[C@H](C)[C@H](NC(=O)[C@@H](C)N)C(=O)N[C@H]1CSSC(C)(C)[C@@H](C(=O)N[C@H](C(=O)N2CCC[C@H]2C(=O)N[C@@H](CCC(N)=O)C(=O)O)[C@@H](C)CC)NC(=O)[C@H]([C@@H](C)CC)NC(=O)[C@@H]2C[C@@H]3CCCC[C@@H]3N2C(=O)[C@@H]2CCCN2C(=O)[C@H](CC(C)C)NC(=O)[C@H](CO)NC(=O)[C@H](CCCNC(=N)N)NC(=O)[C@H](CO)NC1=O) [aIC+SRSLP-(Oic)-I-(Pen)+IPQ-OH] | 4.9 | 140
AICSRS[tBuAla]PP[(2S)‑2‑(Amino)‑2‑((1S,3S)-3-hydroxycyclohexyl)acetic acid][NMeC]IPD-NH2 (disulfide 3-11) [AIC+SRS-((tBu)A)-PP-((2S)-2-(Amino)-2-[(1S,3S)-3-hydroxycyclohexyl]acetic acid)-((N-Me)C)+IPD-NH2] | 4.7 | 1100

Further lines, results first:

human MASP1 IC50 [1] [nM] | human MASP2 IC50 [2] [nM] | Binder
4.5 | 170 | FICSRS[tBuAla]PPI[NMeC]I-NH2 (disulfide 3-11; N-terminus assumed; SMILES CC[C@H](C)[C@H](NC(=O)[C@@H]1CSSC[C@H](NC(=O)[C@@H](NC(=O)[C@@H](N)Cc2ccccc2)[C@@H](C)CC)C(=O)N[C@@H](CO)C(=O)N[C@@H](CCCNC(=N)N)C(=O)N[C@@H](CO)C(=O)N[C@@H](CC(C)(C)C)C(=O)N2CCC[C@H]2C(=O)N2CCC[C@H]2C(=O)N[C@@H]([C@@H](C)CC)C(=O)N1C)C(N)=O) [FIC+SRS-((tBu)A)-PPI-((N-Me)C)+I-NH2]
5 | 200 | [Sar]ICSRSLP[Oic]I[Pen]IPE-NH2 (disulfide 3-11; N-terminus assumed; SMILES CC[C@H](C)[C@H](NC(=O)CNC)C(=O)N[C@H]1CSSC(C)(C)[C@@H](C(=O)N[C@H](C(=O)N2CCC[C@H]2C(=O)N[C@@H](CCC(=O)O)C(N)=O)[C@@H](C)CC)NC(=O)[C@H]([C@@H](C)CC)NC(=O)[C@@H]2C[C@@H]3CCCC[C@@H]3N2C(=O)[C@@H]2CCCN2C(=O)[C@H](CC(C)C)NC(=O)[C@H](CO)NC(=O)[C@H](CCCNC(=N)N)NC(=O)[C@H](CO)NC1=O) [((N-Me)G)-IC+SRSLP-(Oic)-I-(Pen)+IPE-NH2]
4.7 | 200 | [(2S)‑2((Amino)-2-(tetrahydro-2H-pyran-4-yl))acetic acid]ICSRSLP[Oic]ICI-OH (disulfide 3-11) [((2S)-2[(Amino)-2-(tetrahydro-2H-pyran-4-yl)]acetic acid)-IC+SRSLP-(Oic)-IC+I-OH]
4.4 | 68 | [2Pal]ICSRS[tBuAla]PPI[Pen]IPD-NH2 (disulfide 3-11; N-terminus assumed; SMILES CC[C@H](C)[C@H](NC(=O)[C@@H](N)Cc1ccccn1)C(=O)N[C@H]1CSSC(C)(C)[C@@H](C(=O)N[C@H](C(=O)N2CCC[C@H]2C(=O)N[C@@H](CC(=O)O)C(N)=O)[C@@H](C)CC)NC(=O)[C@H]([C@@H](C)CC)NC(=O)[C@@H]2CCCN2C(=O)[C@@H]2CCCN2C(=O)[C@H](CC(C)(C)C)NC(=O)[C@H](CO)NC(=O)[C@H](CCCNC(=N)N)NC(=O)[C@H](CO)NC1=O) [(2-Pal)-IC+SRS-((tBu)A)-PPI-(Pen)+IPD-NH2]
4.8 | 245 | AICSRSLP[Oic]I[NMeC]IPD-NH2 (disulfide 3-11; N-terminus assumed; SMILES CC[C@H](C)[C@H](NC(=O)[C@H](C)N)C(=O)N[C@H]1CSSC[C@@H](C(=O)N[C@H](C(=O)N2CCC[C@H]2C(=O)N[C@@H](CC(=O)O)C(N)=O)[C@@H](C)CC)N(C)C(=O)[C@H]([C@@H](C)CC)NC(=O)[C@@H]2C[C@@H]3CCCC[C@@H]3N2C(=O)[C@@H]2CCCN2C(=O)[C@H](CC(C)C)NC(=O)[C@H](CO)NC(=O)[C@H](CCCNC(=N)N)NC(=O)[C@H](CO)NC1=O) [AIC+SRSLP-(Oic)-I-((N-Me)C)+IPD-NH2]
